Data: patent US20250277023A1 (published 2025)

Tests used:
[1] = target: T1, PD-L1 (on CHO-PD-L1 cells) (UniProt Q9NZQ7 19-290); test: FACS binding; Fig. 22
[2] = target: T1, PD-L1 (on CHO-PD-L1 cells); test: FACS binding; Fig. 24

T1 sequence (Q9NZQ7 19-290): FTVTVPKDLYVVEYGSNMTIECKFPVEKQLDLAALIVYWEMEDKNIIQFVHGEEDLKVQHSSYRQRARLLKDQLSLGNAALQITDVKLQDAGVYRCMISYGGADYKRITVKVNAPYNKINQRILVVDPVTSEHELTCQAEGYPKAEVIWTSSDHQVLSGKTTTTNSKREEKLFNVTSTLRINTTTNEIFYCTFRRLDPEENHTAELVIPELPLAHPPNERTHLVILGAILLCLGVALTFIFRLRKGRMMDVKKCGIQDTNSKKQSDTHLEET

| EC50 [1] [nM] | EC50 [2] [nM] | Binder |
| --- | --- | --- |
| 13.7 |  | R1124: PD-L1_VH_IL21R/TIGIT_VL_IL21/TIGIT_VH/PD-L1-VL (bispecific antibody) chain 1: not shown chain 2: not shown heavy: QVQLVQSGAEVKKPGSSVKVSCKASGYSFTSYWMNWVRQAPGQGLEWIGMIRPSDSETRLNQMFKDRVTITVDKSTSTAYMELSSLRSEDTAVYYCAGIHDYGHGAYWGQGTLVTVSSASTKGPSVFPLAPSSKSTSGGTAALGCLVKDYFPEPVTVSWNSGALTSGVHTFPAVLQSSGLYSLSSVVTVPSSSLGTQTYICNVNHKPSNTKVDKRVEPKSCDKTHTCPPCPAPELLGGPSVFLFPPKPKDTLMISRTPEVTCVVVDVSHEDPEVKFNWYVDGVEVHNAKTKPREEQYNSTYRVVSVLTVLHQDWLNGKEYKCKVSNKALPAPIEKTISKAKGQPREPQVYTLPPSREEMTKNQVSLWCLVKGFYPSDIAVEWESNGQPENNYDTTPPVLDSDGSFFLYSDLTVDKSRWQQGNVFSCSVMHEALHNHYTQKSLSLSPGK light: EIVLTQSPDFQSVTPKEKVTITCSVSSSISSSNLHWYQQKPDQSPKLLIYGTSNLASGVPSRFSGSGSGTDFTLTINSLEAEDAATYYCQQWSSYPLTFGQGTKLEIKRTVAAPSVFIFPPSDEQLKSGTASVVCLLNNFYPREAKVQWKVDNALQSGNSQESVTEQDSKDSTYSLSSTLTLSKADYEKHKVYACEVTHQGLSSPVTKSFNRGEC |
| 2.95 |  | R1119: TIGIT_VH_IL18R1_D1D2/TIGIT_VL_IL18/PD-L1-Fab (bispecific antibody) chain 1: QVQLVQSGAEVKKPGSSVKVSCKASGYSFTSYWMNWVRQAPGQGLEWIGMIRPSDSETRLNQMFKDRVTITVDKSTSTAYMELSSLRSEDTAVYYCAGIHDYGHGAYWGQGTLVTVSSGGGGSGGGGSGGGGSGGGGSGCTSRPHITVVEGEPFYLKHCSCSLAHEIETTTKSWYKSSGSQEHVELNPRSSSRIALHDCVLEFWPVELNDTGSYFFQMKNYTQKWKLNVIRRNKHSCFTERQVTSKIVEVKKFFQITCENSYYQTLVNSTSLYKNCKKLLLENNKNPTIKKNAEFEDQGYYSCVHFLHHNGKLFNITKTFNITIVEDRSNIVEPKSSDKTHTCPPCPAPELLGGPSVFLFPPKPKDTLMISRTPEVTCVVVDVSHEDPEVKFNWYVDGVEVHNAKTKPREEQYNSTYRVVSVLTVLHQDWLNGKEYKCKVSNKALPAPIEKTISKAKGQPREPQVYTLPPSREEMTKNQVSLTCRVKGFYPSDIAVEWESNGQPENNYKTTPPVLKSDGSFFLASKLTVDKSRWQQGNVFSCSVMHEALHNHYTQKSLSLSPGK chain 2: not shown heavy: EVQLQESGPGLVKPSETLSLTCAVYGDSITSGYWNWIRKPPGKGLEYMGYISYTGSTYQNPSLKSRITFSRDTSKNQYYLKLSSVTAADTATYYCARSRAWIRTYFDYWGQGTLVTVSSASTKGPSVFPLAPSSKSTSGGTAALGCLVKDYFPEPVTVSWNSGALTSGVHTFPAVLQSSGLYSLSSVVTVPSSSLGTQTYICNVNHKPSNTKVDKRVEPKSCDKTHTCPPCPAPELLGGPSVFLFPPKPKDTLMISRTPEVTCVVVDVSHEDPEVKFNWYVDGVEVHNAKTKPREEQYNSTYRVVSVLTVLHQDWLNGKEYKCKVSNKALPAPIEKTISKAKGQPREPQVYTLPPSREEMTKNQVSLWCLVKGFYPSDIAVEWESNGQPENNYDTTPPVLDSDGSFFLYSDLTVDKSRWQQGNVFSCSVMHEALHNHYTQKSLSLSPGK light: EIVLTQSPDFQSVTPKEKVTITCSVSSSISSSNLHWYQQKPDQSPKLLIYGTSNLASGVPSRFSGSGSGTDFTLTINSLEAEDAATYYCQQWSSYPLTFGQGTKLEIKRTVAAPSVFIFPPSDEQLKSGTASVVCLLNNFYPREAKVQWKVDNALQSGNSQESVTEQDSKDSTYSLSSTLTLSKADYEKHKVYACEVTHQGLSSPVTKSFNRGEC |
|  | 2.37 | R1081: TIGIT_VH (G44C)_IL15RA/TIGIT_VL(Q100C)_IL15/PD-L1-Fab (bispecific antibody) chain 1: QVQLVQSGAEVKKPGSSVKVSCKASGYSFTSYWMNWVRQAPGQCLEWIGMIRPSDSETRLNQMFKDRVTITVDKSTSTAYMELSSLRSEDTAVYYCAGIHDYGHGAYWGQGTLVTVSSGGGGSGGGGSGGGGSGGGGSGITCPPPMSVEHADIWVKSYSLYSRERYICNSGFKRKAGTSSLTECVLNKATNVAHWTTPSLKCIRDPALVHQRPAPPSTVTTAGVTPQPESLSPSGKEPAASSPSSNNTAATTAAIVPGSQLMPSKSPSTGTTEISSHESSHGTPSQTTAKNWELTASASHQPPGVYPQGHSDTTEPKSSDKTHTCPPCPAPELLGGPSVFLFPPKPKDTLMISRTPEVTCVVVDVSHEDPEVKFNWYVDGVEVHNAKTKPREEQYNSTYRVVSVLTVLHQDWLNGKEYKCKVSNKALPAPIEKTISKAKGQPREPQVYTLPPSREEMTKNQVSLTCRVKGFYPSDIAVEWESNGQPENNYKTTPPVLKSDGSFFLASKLTVDKSRWQQGNVFSCSVMHEALHNHYTQKSLSLSPGK chain 2: DIQMTQSPSSLSASVGDRVTITCRASENIYSNLAWYQQKPGKSPKLLVYAASHLPDGVPSRFSGSGSGTDYSLTISSLQPEDFATYYCQHFWGTPRTFGCGTKLEIKGGGGSGGGGSGGGGSGGGGSGNWVNVISDLKKIEDLIQSMHIDATLYTESDVHPSCKVTAMKCFLLELQVISLESGDASIHNTVQDLIILANNSLSSNGNVTESGCKECEELEEKNIKEFLQSFVHIVQMFINTS heavy: QVQLQESGPGLVKPSETLSLTCAVYGDSITSGYWNWIRKPPGKGLEYIGYISYTGSTYQNPSLKSRITMSRDTSKNQYYLKLSSVTAADTAVYYCARSRAWIRTYFDYWGQGTLVTVSSASTKGPSVFPLAPSSKSTSGGTAALGCLVKDYFPEPVTVSWNSGALTSGVHTFPAVLQSSGLYSLSSVVTVPSSSLGTQTYICNVNHKPSNTKVDKRVEPKSCDKTHTCPPCPAPELLGGPSVFLFPPKPKDTLMISRTPEVTCVVVDVSHEDPEVKFNWYVDGVEVHNAKTKPREEQYNSTYRVVSVLTVLHQDWLNGKEYKCKVSNKALPAPIEKTISKAKGQPREPQVYTLPPSREEMTKNQVSLWCLVKGFYPSDIAVEWESNGQPENNYDTTPPVLDSDGSFFLYSDLTVDKSRWQQGNVFSCSVMHEALHNHYTQKSLSLSPGK light: DIQMTQSPSSLSASVGDRVTITCSVSSSISSSNLHWYQQKPGKAPKPWIYGTSNLASGVPSRFSGSGSGTDYTLTISSLQPEDFATYYCQQWSSYPLTFGQGTKLEIKRTVAAPSVFIFPPSDEQLKSGTASVVCLLNNFYPREAKVQWKVDNALQSGNSQESVTEQDSKDSTYSLSSTLTLSKADYEKHKVYACEVTHQGLSSPVTKSFNRGEC |
|  | 2.78 | R1082: TIGIT_VH (W108C)_IL15RA/TIGIT_VL(S43C)_IL15/PD-L1-Fab (bispecific antibody) chain 1: QVQLVQSGAEVKKPGSSVKVSCKASGYSFTSYWMNWVRQAPGQGLEWIGMIRPSDSETRLNQMFKDRVTITVDKSTSTAYMELSSLRSEDTAVYYCAGIHDYGHGAYCGQGTLVTVSSGGGGSGGGGSGGGGSGGGGSGITCPPPMSVEHADIWVKSYSLYSRERYICNSGFKRKAGTSSLTECVLNKATNVAHWTTPSLKCIRDPALVHQRPAPPSTVTTAGVTPQPESLSPSGKEPAASSPSSNNTAATTAAIVPGSQLMPSKSPSTGTTEISSHESSHGTPSQTTAKNWELTASASHQPPGVYPQGHSDTTEPKSSDKTHTCPPCPAPELLGGPSVFLFPPKPKDTLMISRTPEVTCVVVDVSHEDPEVKFNWYVDGVEVHNAKTKPREEQYNSTYRVVSVLTVLHQDWLNGKEYKCKVSNKALPAPIEKTISKAKGQPREPQVYTLPPSREEMTKNQVSLTCRVKGFYPSDIAVEWESNGQPENNYKTTPPVLKSDGSFFLASKLTVDKSRWQQGNVFSCSVMHEALHNHYTQKSLSLSPGK chain 2: DIQMTQSPSSLSASVGDRVTITCRASENIYSNLAWYQQKPGKCPKLLVYAASHLPDGVPSRFSGSGSGTDYSLTISSLQPEDFATYYCQHFWGTPRTFGQGTKLEIKGGGGSGGGGSGGGGSGGGGSGNWVNVISDLKKIEDLIQSMHIDATLYTESDVHPSCKVTAMKCFLLELQVISLESGDASIHNTVQDLIILANNSLSSNGNVTESGCKECEELEEKNIKEFLQSFVHIVQMFINTS heavy: QVQLQESGPGLVKPSETLSLTCAVYGDSITSGYWNWIRKPPGKGLEYIGYISYTGSTYQNPSLKSRITMSRDTSKNQYYLKLSSVTAADTAVYYCARSRAWIRTYFDYWGQGTLVTVSSASTKGPSVFPLAPSSKSTSGGTAALGCLVKDYFPEPVTVSWNSGALTSGVHTFPAVLQSSGLYSLSSVVTVPSSSLGTQTYICNVNHKPSNTKVDKRVEPKSCDKTHTCPPCPAPELLGGPSVFLFPPKPKDTLMISRTPEVTCVVVDVSHEDPEVKFNWYVDGVEVHNAKTKPREEQYNSTYRVVSVLTVLHQDWLNGKEYKCKVSNKALPAPIEKTISKAKGQPREPQVYTLPPSREEMTKNQVSLWCLVKGFYPSDIAVEWESNGQPENNYDTTPPVLDSDGSFFLYSDLTVDKSRWQQGNVFSCSVMHEALHNHYTQKSLSLSPGK light: DIQMTQSPSSLSASVGDRVTITCSVSSSISSSNLHWYQQKPGKAPKPWIYGTSNLASGVPSRFSGSGSGTDYTLTISSLQPEDFATYYCQQWSSYPLTFGQGTKLEIKRTVAAPSVFIFPPSDEQLKSGTASVVCLLNNFYPREAKVQWKVDNALQSGNSQESVTEQDSKDSTYSLSSTLTLSKADYEKHKVYACEVTHQGLSSPVTKSFNRGEC |
|  | 2.29 | R1083: TIGIT_VH (L45C)_IL15RA/TIGIT_VL(F98C)_IL15/PD-L1-Fab (bispecific antibody) chain 1: QVQLVQSGAEVKKPGSSVKVSCKASGYSFTSYWMNWVRQAPGQGCEWIGMIRPSDSETRLNQMFKDRVTITVDKSTSTAYMELSSLRSEDTAVYYCAGIHDYGHGAYWGQGTLVTVSSGGGGSGGGGSGGGGSGGGGSGITCPPPMSVEHADIWVKSYSLYSRERYICNSGFKRKAGTSSLTECVLNKATNVAHWTTPSLKCIRDPALVHQRPAPPSTVTTAGVTPQPESLSPSGKEPAASSPSSNNTAATTAAIVPGSQLMPSKSPSTGTTEISSHESSHGTPSQTTAKNWELTASASHQPPGVYPQGHSDTTEPKSSDKTHTCPPCPAPELLGGPSVFLFPPKPKDTLMISRTPEVTCVVVDVSHEDPEVKFNWYVDGVEVHNAKTKPREEQYNSTYRVVSVLTVLHQDWLNGKEYKCKVSNKALPAPIEKTISKAKGQPREPQVYTLPPSREEMTKNQVSLTCRVKGFYPSDIAVEWESNGQPENNYKTTPPVLKSDGSFFLASKLTVDKSRWQQGNVFSCSVMHEALHNHYTQKSLSLSPGK chain 2: DIQMTQSPSSLSASVGDRVTITCRASENIYSNLAWYQQKPGKSPKLLVYAASHLPDGVPSRFSGSGSGTDYSLTISSLQPEDFATYYCQHFWGTPRTCGQGTKLEIKGGGGSGGGGSGGGGSGGGGSGNWVNVISDLKKIEDLIQSMHIDATLYTESDVHPSCKVTAMKCFLLELQVISLESGDASIHNTVQDLIILANNSLSSNGNVTESGCKECEELEEKNIKEFLQSFVHIVQMFINTS heavy: QVQLQESGPGLVKPSETLSLTCAVYGDSITSGYWNWIRKPPGKGLEYIGYISYTGSTYQNPSLKSRITMSRDTSKNQYYLKLSSVTAADTAVYYCARSRAWIRTYFDYWGQGTLVTVSSASTKGPSVFPLAPSSKSTSGGTAALGCLVKDYFPEPVTVSWNSGALTSGVHTFPAVLQSSGLYSLSSVVTVPSSSLGTQTYICNVNHKPSNTKVDKRVEPKSCDKTHTCPPCPAPELLGGPSVFLFPPKPKDTLMISRTPEVTCVVVDVSHEDPEVKFNWYVDGVEVHNAKTKPREEQYNSTYRVVSVLTVLHQDWLNGKEYKCKVSNKALPAPIEKTISKAKGQPREPQVYTLPPSREEMTKNQVSLWCLVKGFYPSDIAVEWESNGQPENNYDTTPPVLDSDGSFFLYSDLTVDKSRWQQGNVFSCSVMHEALHNHYTQKSLSLSPGK light: DIQMTQSPSSLSASVGDRVTITCSVSSSISSSNLHWYQQKPGKAPKPWIYGTSNLASGVPSRFSGSGSGTDYTLTISSLQPEDFATYYCQQWSSYPLTFGQGTKLEIKRTVAAPSVFIFPPSDEQLKSGTASVVCLLNNFYPREAKVQWKVDNALQSGNSQESVTEQDSKDSTYSLSSTLTLSKADYEKHKVYACEVTHQGLSSPVTKSFNRGEC |
